The chains are these.
B1: BRF1 (parent)
chain: FVESSGGGSSAVGQFVSLDGAGKT
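Also: lentivirally expressed fusions sorted by FACS into six bins by GFP to DsRed ratio, PSI derived from sequencing read proportions per bin multiplied by bin number.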

Variants of B1 are the subject of the data set. Put plainly: protein stability index of a GFP-peptide fusion (GPS, HEK-293T) (PSI 1-6); higher = more stable. As to conditions: c terminus: a fixed tail appended.
FVESSGGGSSAVGYFVSLDGAGKT: the protein stability index came to 1.75.

On to FVESSGGGSSAVGIFVSLDGAGKT, for which the protein stability index came out at 2.53.

On to FVESSGGGSSAVGEFVSLDGAGKT, for which the protein stability index was 2.89.

FVESSGGGSSAVGQLVSLDGAGKT: the protein stability index worked out at 2.27.

As to FVESSGGGSSAVGQMVSLDGAGKT, the protein stability index came out at 2.22.

On to FVESSGGGSSAVGQNVSLDGAGKT, for which the protein stability index is 2.83.

On to FVESSGGGSSAVGQQVSLDGAGKT, for which the protein stability index stood at 2.56.

As to FVESSGGGSSAVGQEVSLDGAGKT, the protein stability index was determined as 3.35.

FVESSGGGSSAVGQAVSLDGAGKT: the protein stability index was 2.31.

FVESSGGGSSAVGQGVSLDGAGKT: the protein stability index came out at 2.68.

As to FVESSGGGSSAVGQDVSLDGAGKT, the protein stability index was found to be 4.4.

As for FVESSGGGSSAVGQPVSLDGAGKT, the protein stability index amounted to 3.14.

On to FVESSGGGSSAVGQKVSLDGAGKT, for which the protein stability index is 3.1.

As for FVESSGGGSSAVGQWVSLDGAGKT, the protein stability index worked out at 2.06.

As for FVESSGGGSSAVGQIVSLDGAGKT, the protein stability index worked out at 2.55.

As to FVESSGGGSSAVGQRVSLDGAGKT, the protein stability index was determined as 2.69.

On to FVESSGGGSSAVGQYVSLDGAGKT, for which the protein stability index came out at 2.59.

In the case of FVESSGGGSSAVGQSVSLDGAGKT, the protein stability index was found to be 2.73.

Consider FVESSGGGSSAVGQHVSLDGAGKT, for which the protein stability index was 3.01.

On to FVESSGGGSSAVGQTVSLDGAGKT, for which the protein stability index turned out to be 2.96.

For the variant FVESSGGGSSAVGQVVSLDGAGKT, the protein stability index was 2.12.

For the variant FVESSGGGSSAVGQFVSCDGAGKT, the protein stability index was determined as 2.5.

Take FVESSGGGSSAVGQFVSWDGAGKT: the protein stability index stood at 1.58.

Regarding FVESSGGGSSAVGQFVSFDGAGKT, the protein stability index turned out to be 1.83.

Consider FVESSGGGSSAVGQFVSGDGAGKT, for which the protein stability index stood at 2.15.

FVESSGGGSSAVGQFVSYDGAGKT: the protein stability index came out at 1.85.

On to FVESSGGGSSAVGQFVSDDGAGKT, for which the protein stability index is 2.58.

As for FVESSGGGSSAVGQFVSRDGAGKT, the protein stability index turned out to be 2.

On to FVESSGGGSSAVGQFVSTDGAGKT, for which the protein stability index worked out at 2.04.

Regarding FVESSGGGSSAVGQFVSADGAGKT, the protein stability index came to 2.5.

Turning to FVESSGGGSSAVGQFVSSDGAGKT, the protein stability index was 2.66.

Turning to FVESSGGGSSAVGQFVSIDGAGKT, the protein stability index amounted to 2.69.

For FVESSGGGSSAVGQFVSEDGAGKT, the protein stability index is 3.8.

Take FVESSGGGSSAVGQFVSKDGAGKT: the protein stability index worked out at 2.3.

As for FVESSGGGSSAVGQFVSMDGAGKT, the protein stability index amounted to 2.55.

Consider FVESSGGGSSAVGQFVSQDGAGKT, for which the protein stability index came to 2.88.

As for FVESSGGGSSAVGQFVSHDGAGKT, the protein stability index came to 3.25.

Regarding FVESSGGGSSAVGQFVSNDGAGKT, the protein stability index stood at 3.25.

Regarding FVESSGGGSSAVGQFVSPDGAGKT, the protein stability index came to 2.12.

As to FVESSGGGSSAVGQFVSVDGAGKT, the protein stability index is 2.95.

FVESSGGGSSAVGQFVSLDGDGKT: the protein stability index is 3.36.

Consider FVESSGGGSSAVGQFVSLDGHGKT, for which the protein stability index stood at 2.13.

With FVESSGGGSSAVGQFVSLDGFGKT, the protein stability index was 1.33.

Consider FVESSGGGSSAVGQFVSLDGEGKT, for which the protein stability index worked out at 3.23.

Turning to FVESSGGGSSAVGQFVSLDGGGKT, the protein stability index turned out to be 2.6.

As for FVESSGGGSSAVGQFVSLDGLGKT, the protein stability index stood at 1.8.

For FVESSGGGSSAVGQFVSLDGTGKT, the protein stability index came to 2.54.

For the variant FVESSGGGSSAVGQFVSLDGQGKT, the protein stability index amounted to 2.03.

In the case of FVESSGGGSSAVGQFVSLDGNGKT, the protein stability index came to 2.56.

FVESSGGGSSAVGQFVSLDGMGKT: the protein stability index came to 2.32.

Take FVESSGGGSSAVGQFVSLDGKGKT: the protein stability index is 2.43.

For the variant FVESSGGGSSAVGQFVSLDGPGKT, the protein stability index amounted to 1.95.

In the case of FVESSGGGSSAVGQFVSLDGRGKT, the protein stability index was 2.66.

On to FVESSGGGSSAVGQFVSLDGCGKT, for which the protein stability index came out at 1.81.

For the variant FVESSGGGSSAVGQFVSLDGIGKT, the protein stability index was 1.96.

FVESSGGGSSAVGQFVSLDGSGKT: the protein stability index was 2.15.

With FVESSGGGSSAVGQFVPLDGAGKT, the protein stability index came out at 1.81.

In the case of FVESSGGGSSAVGQFVNLDGAGKT, the protein stability index came out at 2.19.

With FVESSGGGSSAVGQFVGLDGAGKT, the protein stability index was determined as 3.15.

FVESSGGGSSAVGQFVTLDGAGKT: the protein stability index came to 2.29.

In the case of FVESSGGGSSAVGQFVWLDGAGKT, the protein stability index amounted to 2.87.

FVESSGGGSSAVGQFVQLDGAGKT: the protein stability index is 2.81.

For the variant FVESSGGGSSAVGQFVMLDGAGKT, the protein stability index stood at 1.57.

Regarding FVESSGGGSSAVGQFVVLDGAGKT, the protein stability index stood at 1.99.

Turning to FVESSGGGSSAVGQFVILDGAGKT, the protein stability index was 1.23.

With FVESSGGGSSAVGQFVKLDGAGKT, the protein stability index came to 1.89.

In the case of FVESSGGGSSAVGQFVELDGAGKT, the protein stability index stood at 2.53.

On to FVESSGGGSSAVGQFVFLDGAGKT, for which the protein stability index was 1.72.

FVESSGGGSSAVGQFVHLDGAGKT: the protein stability index turned out to be 2.54.

On to FVESSGGGSSAVGQFVDLDGAGKT, for which the protein stability index is 2.39.

FVESSGGGSSAVGQFVYLDGAGKT: the protein stability index came out at 2.45.

With FVESSGGGSSAVGQFVLLDGAGKT, the protein stability index was 2.33.

In the case of FVESSGGGSSAVGQFVALDGAGKT, the protein stability index was 3.26.

Consider FVESSGGGSSAVGQFVRLDGAGKT, for which the protein stability index came to 1.73.

On to FVESSGGGSSAVGQFVCLDGAGKT, for which the protein stability index amounted to 1.83.

In the case of FVESSGGGSSAVGQFGSLDGAGKT, the protein stability index amounted to 2.4.

In the case of FVESSGGGSSAVGQFMSLDGAGKT, the protein stability index was 2.96.

For FVESSGGGSSAVGQFCSLDGAGKT, the protein stability index stood at 3.51.

Turning to FVESSGGGSSAVGQFLSLDGAGKT, the protein stability index came out at 2.36.

In the case of FVESSGGGSSAVGQFFSLDGAGKT, the protein stability index was determined as 2.01.

FVESSGGGSSAVGQFKSLDGAGKT: the protein stability index was determined as 2.16.

Take FVESSGGGSSAVGQFYSLDGAGKT: the protein stability index was 1.75.

Regarding FVESSGGGSSAVGQFPSLDGAGKT, the protein stability index is 2.66.

As to FVESSGGGSSAVGQFDSLDGAGKT, the protein stability index was found to be 2.96.

With FVESSGGGSSAVGQFRSLDGAGKT, the protein stability index stood at 2.35.

In the case of FVESSGGGSSAVGQFTSLDGAGKT, the protein stability index amounted to 2.38.

As for FVESSGGGSSAVGQFSSLDGAGKT, the protein stability index is 2.83.

For the variant FVESSGGGSSAVGQFNSLDGAGKT, the protein stability index was found to be 2.63.

On to FVESSGGGSSAVGQFASLDGAGKT, for which the protein stability index amounted to 2.65.

Regarding FVESSGGGSSAVGQFESLDGAGKT, the protein stability index was 3.51.

For FVESSGGGSSAVGQFISLDGAGKT, the protein stability index amounted to 2.18.

In the case of FVESSGGGSSAVGQFQSLDGAGKT, the protein stability index came out at 2.97.

For the variant FVESSGGGSSAVGQFHSLDGAGKT, the protein stability index worked out at 2.6.

Turning to FVESSGGGSSAVGQFWSLDGAGKT, the protein stability index was 4.22.

For the origin of these results see the supplement of paper PMC10567573.
